Source: publication PMC5095173, “Disulfide-activated protein kinase G Iα regulates cardiac diastolic relaxation and fine-tunes the Frank–Starling response” (Nature Communications, 2016)

Columns and labels:
[1] = tested on: PKGIα (analogue-sensitive M438G), disulfide-activated; assay: Chemical genetic phosphoproteomic screen, disulfide-activated PKGIα M438G versus unactivated control; type: biochemical, human PKGIα; substrates in rat heart homogenate; settings: disulfide-activated PKGIα M438G vs basal; 1 h, 30 °C, pH 7.5, rat heart homogenate; label-free LC–MS/MS; n=4; * P<0.05 Dunnett: only phospholamban S16
Excerpt: (§1) We employed a chemical genetic method[18] to identify direct substrates of cGMP-activated PKGIα and disulfide bond-activated PKGIα in heart tissue. This method involves mutation of the ATP binding-site of the kinase of interest so that it can accept a ‘bulky' N6-alkylated ATP analogue for example, N6^−phenylethyl ATP. An oxygen atom on the γ phosphate is also replaced with a sulfur atom—giving an N6-alkylated ATPγS analogue—so that the mutant kinase catalyses the transfer of a thiophosphate group (–PO3S^3−) to its substrates instead of a phosphate. The thiophosphate group is nucleophilic, providing a basis for substrates of the analogue-sensitive kinase to be purified by a ‘covalent capture' protocol. LC–MS/MS allows identification of the substrate and localization of the phosphorylation site. Thiophosphorylated proteins can also be detected with a thiophosphate ester-specific antibody. Analogue-sensitive mutants of PKGIα and PKGIα C42S (which cannot form the activating intermolecular disulfide bond) were generated by mutating Met438 in the ATP-binding domain to Gly. This mutation was chosen based on a previous study where an analogue-sensitive mutant of the catalytic subunit of PKA—which shares sequence homology with PKGIα—was engineered. Detailed protocols are given below.
(§2) A pCDNA3 expression vector encoding human FLAG-tagged PKGIα (ref. [41]) underwent site-directed mutagenesis to generate constructs for untagged WT, C42S, M438G and C42S/M438G PKGIα. Mutations were introduced using the QuikChange II Site-Directed Mutagenesis Kit (Agilent) according to the manufacturer's instructions. Expression and purification of the PKGIα mutants was performed according to a published method[42] as follows: suspension FreeStyle 293-F cells (ThermoFisher Scientific) were transfected with the appropriate PKGIα construct using the stable cationic polymer polyethyleneimine (PEI) as a transfection reagent. After ∼72 h cells were harvested by centrifugation (400g; room temperature; 15 min), re-suspended in ice cold lysis buffer (25 mM sodium phosphate buffer pH 6.8; 10 mM ethylenediaminetetraacetic acid (EDTA); 100 mM NaCl; 10 mM benzamidine hydrochloride; and 10 mM dithiothreitol (DTT)) and frozen in liquid N2. Cells were lysed by three freeze (liquid N2)-thaw (37 °C) cycles and the lysate was clarified by centrifugation at 140,000g and 4 °C for 30 min. The soluble protein fraction was loaded onto a pre-equilibrated 8-(2-aminoethylamino)adenosine-3′, 5′-cyclic monophosphate column (8-AEA-cAMP agarose; BioLog, Germany) followed by washing with 20 column volumes of lysis buffer. The column was further washed with lysis buffer +3 M NaCl (5 column volumes) and PKGIα was then eluted with lysis buffer +150 mM NaCl and 500 μM cAMP. Removal of cAMP and buffer exchange was achieved by extensive dialysis against 25 mM sodium phosphate buffer pH 6.8, 2 mM EDTA and 100 mM NaCl. For ITC analysis, WT PKGIα was incubated with 10 mM lipoic acid for 2 h on ice to obtain ∼100% disulfide dimer (confirmed by SDS-PAGE). Oxidized WT or C42S PKGIα was further purified by size exclusion chromatography using a HiLoad 16/600 Superdex 200 pg column (GE Healthcare) with 50 mM sodium phosphate buffer pH 7.4 and 100 mM NaCl. Proteins were concentrated using Amicon Ultra centrifugal filter devices (Merck Millipore). DTT was absent in storage buffers so that the activating disulfide bond would not be reduced and so that the PKGIα M438G mutant would be oxidized to disulfide dimer in the presence of air (confirmed by SDS-PAGE). Protein concentration was determined by Pierce BCA assay (ThermoFisher) and enzyme activity was confirmed using the Omnia kinase assay kit (ThermoFisher).
(§3) Male Wistar rats (9–10 weeks; body weight 300–330 g) were euthanized by intraperitoneal injection of sodium pentobarbitone (200 mg kg^−1) with heparin (500 USP units). […]

[2] = tested on: PKGIα (analogue-sensitive C42S/M438G), cGMP-activated; assay: Chemical genetic phosphoproteomic screen, cGMP-activated PKGIα C42S/M438G versus unactivated control; type: biochemical, human PKGIα; substrates in rat heart homogenate; settings: PKGIα C42S/M438G + 100 μM cGMP vs basal; 1 h, 30 °C, pH 7.5, rat heart homogenate; label-free LC–MS/MS; n=4; * P<0.05 Dunnett: all values except phospholamban S16
Excerpt: as §1, §2, §3

Row | Molecule | Log2 fold change in phosphorylation, Disulfide versus control [1] | Log2 fold change in phosphorylation, cGMP versus control [2]
1 | Leucine-rich PPR motif-containing protein, mitochondrial: PKGIα substrate, phospho site S656 (protein, UniProt Q5SGE0 78-1392, looked up, phosphorylated at S656) Leucine-rich PPR …: SGSQFDWALMRLDNSVRRTGRITKGLLQKVFESTCRSGSPGSNQALLLLRSCGSLLPELSLAERTEFAHKIWDKLQQLGTVYDVSHYNALLKVYLQNEYRFSPTDFLAKMEGANIQPNRVTYQRLIAAYCSVGDIEGASKILGFMKTRDLPITEAVFSALVTGHARAGDMESAENILTVMKQAGIEPGPDTYLALLNAHAEKGDIDHVKQILEKVEKSDHYFMDRDFLQIIVSFSKAGYPQYVSEILEKITYERRSIPDAMNLILLLVTEKLEDTAFQVLLALPLARDETSSSFGSFFLRHCVTMDTPAEKLIDYCKRLRDAKVHSSSLQFTLHCALQANKTALAKAVMEALRDEGFPIRTHYFWPLLVGHQKTKNVQGIIDILKIMKEMGVDPDQETYINYVFPCFGSVQSARAALQENKCLPKSTTFAQAEVRNEAINGNLQNILSFLESNALPFSFNSLRGSLILGFRRSMNIDLWSKITELLYKDDRYCQKPPGPTEAVGYFLYNLIDSMSDSEVQAKEERLRQYFHQLREMNVKVSENIYKGICNLLDNYHVPELIKDVKVLVDREKIDSRKTSQFTSSDLESTLEKLKAEGHPVGDPLKQLILLLCSEENMQKALEVKAKYESDMVIGGYAALINLCCRHDNAEDALNLKQEFDRLDPSAVLDTAKYVALVKVLGKHGRVQDAINILKEMKEKDVVIKDAAVLSFFHILNGAALRGEIETVKQLHEAIVTLGLAKPSSNISFPLVTVHLEKDDLPAALEASIACHEKYKVLPRIHDVLCKLIEKGETDLIQKAMDFVSQEQGEMSMLYDLFFAFLQTGNYKEAKKIIETPGIRARPTRLQWFCDRCIANNQVETLEKLVELTEKLFECDRDQMYYNLLKLYKISGDWQRADAVWNKMQEENLIPRERTLRLLAGILKTSNQEVPFDVPELWFGDDRSSLSSSSPSAGDTVTEKMLLSDCRLKKSKDAYNIFLKAEKQDVVFSSEAYSTLVGLLLSKDDFTRAMHVKDFAETHIKGFTLNGAASSLLIIAQVRRDYLKVALETLKAALDLEQVPSELAVTRLIQALALQGDVKSIETIQKMVKGLDAIELSRMVFINNIALAQMKNNEIDAAIENIEHMLASENQTVEHQYFGLSYLFRKVIEEQMEPALEKLSIMSERLANQFALYKPVTDLFLQLVDSGKVDEARALLERCGAIAEQTSILSVFCLRTSQKPKKAPVLKTLLELIPELRENDRVYSCSMKSYVADKDVASAKALYEHLTAKNMKLDDLFLKRYASLLKDVGEPVPFTEPPESFGFYIKQLKEARENPS | 0.77 | 4.57*
2 | Matrin-3: PKGIα substrate, phospho site T150 (protein, UniProt P43244 2-845, looked up, phosphorylated at T150) Matrin-3: SKSFQQSSLGRDSQGHGRDLSAAGIGLLAAATQSLSMPASLGRMNQGTARLASLMNLGMSSSLNQQGAHSALSSASTSSHNLQSIFNIGSRGPLPLSSQHRGDTDQASNILASFGLSARDLDELSRYPEDKITPENLPQILLQLKRRRTEEGPTLSYGRDGRSATREPPYRVPRDDWEEKRHFRRDSFDDRGPSLNPVLDYDHGSRSQESGYYDRMDYEDDRLRDGERCRDDSFFGETSHNYHKFDSEYERMGRGPGPLQERSLFEKKRGAPPSSNIEDFHGLLPKGYPHLCSICDLPVHSNKEWSQHINGASHSRRCQLLLEIYPEWNPDNDTGHTMGDPFMLQQSTNPAPGILGPPPPSFHLGGPAVGPRGNLGAGNGNLQGPRHMQKGRVETSRVVHIMDFQRGKNLRYQLLQLVEPFGVISNHLILNKINEAFIEMATTEDAQAAVDYYTTTPALVFGKPVRVHLSQKYKRIKKPEGKPDEKFDQKQELGRVIHLSNLPHSGYSDSAVLKLAEPYGKIKNYILMRMKSQAFIEMETREDAMAMVDHCLKKALWFQGRCVKVDLSEKYKKLVLRIPNRGIDLLKKDKSRKRSYSPDGKESPSDKKSKTDGAQKTENPAEGKEQEEKSGEDGEKDTKDDQTEQEPSMLLESEDELLVDEEEAAALIESGSSVGDETDLANLGDVSSDGKKEPSDKAVKKDASATSKKKLKKVDKIEELDQENEAALENGIKNEENTEPGAESAENADDPNKDASDNSDGQNDENKEDYTIPDEYRIGPYQPNVPGGIDYVIPKTGFYCKLCSLFYTNEEVAKNTHCSSLPHYQKLKKFLNKLAEERRQKKES | 1.38 | 3.58*
3 | Microtubule-associated protein 4: PKGIα substrate, phospho site T899 (protein, UniProt Q5M7W5 2-1057, looked up, phosphorylated at T899) Microtubule-associated …: ADLSLVDALTEPPPEIEGEIKRDFMAALEAEPYDDIVGETVEKTEFIPLLDGDEKSGNSESKRKPCVDTSQVEDIPSSKPTLLANGDHGVEGNNTTGSPTDFLVENVDYEDYQNSQSWPEDASFCFQPQQVLDTNQADPFNVHHDDGLADLLFVSSGPTNASAFIEENNPLEDSYGVLPCDSFAPTAVVSQEWSVGAPDSPHSEPCVSPEVTIETAQPATELSKAVDLESVKEQLPAKALEMMAGQTTDAVPSKESEGSPDTDAAPGPDTDVTLTKDIEESSSPDVISANVTQPFTESDMFLTQEMELLIGTEAAQVKDTMSSVEPDISSAKNTAPPTEEETVPGKDMTFPKEAETALPIEMDLAPPEDVALPKETELELAPAAGTAPLSETEVALAKDEEPSTGIPAAQEMLLSSETEVVLPSDSIMTLTKEVTVPLEAAGPLVSDMTAILETEMTLGGGTATPTETKLGKVKDMAPLPESEVALGKDVVTLPETKVTEFNNVTPLSEEEVASIKDVSPSPETETAKNADLHSGTELTLDNSMTPPSDPALPLETKVATVQIKDKETVQTQEELSEDSQLESVQLEGQSAVPPCTISPEPVKAADQKSTLPVDEGSPLEKLEQKETSGSQPPELCSGVSRQEEGKAAVGLTGNDIATPPNKELPPSPEKKAKPLATTQPAKTSTSKAKIQPTSLPKQPAPTTSGGLNKKPMSLASGSVPAAPHKRPAAATATARPSTLPARDLKPKPITETKVAEKRTSPSKPSSAPALRPGPKTTPTISKATSPSTLVSTGSSSRSPSTTLPKRPTTTKTEGKPADVKRMTAKSATADLSRSKTTSASSVKRNTTPTGATPPAGMASTRVKPMSAPCRSSVALSVDKKPTSTKPSSSAPRVSRLATTVSAPDLKSVRSKVGSTENMKHQPGGGRVQIQNKKVDISKVSSKCGSKANIKHKPGGGDVKIESQKLNFKEKAQAKVGSLDNVGHLPAGGTVKTEGGGSEAPPCPGPPAGEEPAIPEAAPDAGAPTSASGLSGHTTLSGGGDQREPQTLDSQIQETSI | 1.73 | 3.69*
4 | Mitochondrial ribonuclease P protein 1: PKGIα substrate, phospho site T377 (protein, UniProt Q5U2R4 36-414, looked up, phosphorylated at T377) tRNA methyltransferase 10 …: VSSKVPSLPCHNKDSTSPPEQLELDGWKTTMKSSIQENGVSVVSDKDEDSLAATRELIEMWRLLGKEVPEHITEEELKTLMECASKSAKKKYLRYLYGKEMMKKAKQMKKEMKAAAREEAKRARSLEPSTGEEQRDFMFLRLWDRQTNIALGWKGVQAMQFGQPLVFDMAYDNYMKPSELQNTVSQLLESEGWNRRNVDPFHIYFCNLEVDGAYHRELVKRYGEKWDKLLLTATEKSPVDLFPKDSIIYLTADSPNVMTTFKHDKIYIIGSFVDKNTQTGTSLAKAKRQNLATECLPLDKYLQWDVGNKNLTLDQMIRILLCLKNTGNWEEALKFVPRRKHTGYLEVPEHSQAAFRKLKKTKTLNSFRKGSLNVHMWKR | 0.45 | 1.98*
